From patent US20240034779A1 (Takeda / Millennium, published 2024)

Tests used:
[1] = target: T1, cynomolgus complement factor D (CFD) (cynomolgus monkey); experiment: SPR (Biacore), pH 7.4
T1 construct: also called cyno CFD; cynomolgus CFD

[2] = target: T2, human complement factor D (CFD) (human, UniProt P00746 26-253, limits assumed); experiment: SPR (Biacore), pH 7.4; pH 7.4
T2 construct: also called human CFD; adipsin

[3] = target: T2, human complement factor D (CFD); experiment: SPR (Biacore), pH 5.5
[4] = target: T1, cynomolgus complement factor D (CFD); experiment: SPR (Biacore), pH 5.5

T2 sequence (P00746 26-253 limits assumed): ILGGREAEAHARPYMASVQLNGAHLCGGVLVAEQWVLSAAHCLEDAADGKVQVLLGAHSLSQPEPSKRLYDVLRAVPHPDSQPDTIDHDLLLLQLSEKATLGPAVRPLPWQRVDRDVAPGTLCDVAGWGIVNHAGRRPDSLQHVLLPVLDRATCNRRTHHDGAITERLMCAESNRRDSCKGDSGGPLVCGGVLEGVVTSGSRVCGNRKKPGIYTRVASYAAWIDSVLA

B1: anti-CFD antibody 2 (clone 169C8) (antibody, human IgG1, lambda, L234A L235A, V domains shown)
VH: EVQVQESGPGLVKPSQTLSLTCTVSGGSITTSYYAWSWIRQPPGKGLEWMGDIANDGSTYYSPSLESRTSISRDTSKNQFSLQLSSVTPEDTAVYYCARLRSLYTDYDPHYYDYWGQGTQVTVSS
VL: SSALTQPSALSVTKGQTAKITCQGDLLPRHYAHWYQQKTGQAPKLIVYDDDIRPSGIPERFSGSNSGGVATLTIAGAQAEDEADYHCQSADSNDDAVFGGGTHLTVLS
notes: also called anti-CFD mAb 2; ASHE mAb
Kd [1]: 0.037 nM | Kd [2]: 0.002 nM | Kd [3]: 805 nM | Kd [4]: 4.59 nM
